Measured values from the RNAGym collection of RNA variant scans (doi:10.1101/gr.219683.116).

B1: mRNA-splicing (parent)
chain: AGUUGCUGCUGGGAGCUCCAGCACAGUGAAAUGGACAGAAGGGCAGAGCAA

Variants of: B1
Test: exon inclusion enrichment index; higher = more inclusion; WT1 exon 5 minigene, HEK293

| Variant | exon inclusion enrichment index |
| --- | --- |
| AGUUCGCGCCGGGAGCUCCAGCACAGUGAAAUAGACAGAAGGGCAGAGCAA | 0.609 |
| AGUUCGCGCCGGGAGCUCCAGCACAGUGAAAUUGACAGAAGGGCAGAGCAA | 1.79 |
| AGUUCGCGCCGGGAGCUCCAGCACAGUGAAAUCGACAGAAGGGCAGAGCAA | 3.55 |
| AGUUCGCGCCGGGAGCUCCAGCACAGUGAAAUGGACAUGAGGGCAGAGCAA | 2.02 |
| AGUUCGCGCCGGGAGCUCCAGCACAGUGAAAUGGACAUCAGGGCAGAGCAA | 3.03 |
| AGUUCGCGCCGGGAGCUCCAGCACAGUGAAAUGGACAUUAGGGCAGAGCAA | 0.22 |
| AGUUCGCGCCGGGAGCUCCAGCACAGUGAAAUGGACAAUAGGGCAGAGCAA | 0.365 |
| AGUUCGCGCCGGGAGCUCCAGCACAGUGAAAUGGACAAGAGGGCAGAGCAA | 2.72 |
| AGUUCGCGCCGGGAGCUCCAGCACAGUGAAAUGGACAACAGGGCAGAGCAA | 2.65 |
| AGUUCGCGCCGGGAGCUCCAGCACAGUGAAAUGGACAGAAGGGCAUUGCAA | 3.93 |
| AGUUCGCGCCGGGAGCUCCAGCACAGUGAAAUGGACAGAAGGGCAUGGCAA | 2.91 |
| AGUUCGCGCCGGGAGCUCCAGCACAGUGAAAUGGACAGAAGGGCAUCGCAA | 3.73 |
| AGUUCGCGCCGGGAGCUCCAGCACAGUGAAAUGGACAGAAUCGCAGAGCAA | 3.95 |
| AGUUCGCGCCGGGAGCUCCAGCACAGUGAAAUGGACAGAAUAGCAGAGCAA | 1.45 |
| AGUUCGCGCCGGGAGCUCCAGCACAGUGAAAUGGACAGAAUUGCAGAGCAA | 2.79 |
| AGUUCGCGCCGGGAGCUCCAGCACAGUGAAAUGGACAGAAGGCCAGAGCAA | 2.7 |
| AGUUCGCGCCGGGAGCUCCAGCACAGUGAAAUGGACAGAAGGACAGAGCAA | 5.08 |
| AGUUCGCGCCGGGAGCUCCAGCACAGUGAAAUGGACAGAAGGUCAGAGCAA | 2.89 |
| AGUUCGCGCCGGGAGCUCCAGCACAGUGAAAUCCACAGAAGGGCAGAGCAA | 2.29 |
| AGUUCGCGCCGGGAGCUCCAGCACAGUGAAAUCUACAGAAGGGCAGAGCAA | 2.86 |
| AGUUCGCGCCGGGAGCUCCAGCACAGUGAAAUCAACAGAAGGGCAGAGCAA | 2.48 |
| AGUUCGCGCCGGGAGCUCCAGCACAGUGAAAUGGACAGAAGGCAAGAGCAA | 3.83 |
| AGUUCGCGCCGGGAGCUCCAGCACAGUGAAAUGGACAGAAGGCUAGAGCAA | 3.09 |
| AGUUCGCGCCGGGAGCUCCAGCACAGUGAAAUGGACAGAAGGCGAGAGCAA | 6.55 |
| AGUUCGCGCCGGGAGCUCCAGCACAGUGAAAUGGACAGAAGGGCAAUGCAA | 3.68 |
| AGUUCGCGCCGGGAGCUCCAGCACAGUGAAAUGGACAGAAGGGCAACGCAA | 3.6 |

| Variant | exon inclusion enrichment index |
| --- | --- |
| AGUUCGCGCCGGGAGCUCCAGCACAGUGAAAUGGACAGAAGGGCAAGGCAA | 1.33 |
| AGUUCGCGCCGGGAGCUCCAGCACAGUGAAAUGUUCAGAAGGGCAGAGCAA | 1.2 |
| AGUUCGCGCCGGGAGCUCCAGCACAGUGAAAUGUGCAGAAGGGCAGAGCAA | 1.24 |
| AGUUCGCGCCGGGAGCUCCAGCACAGUGAAAUGUCCAGAAGGGCAGAGCAA | 1.66 |
| AGUUCGCGCCGGGAGCUCCAGCACAGUGAAAUGGACAGAAGGGCACGGCAA | 3.52 |
| AGUUCGCGCCGGGAGCUCCAGCACAGUGAAAUGGACAGAAGGGCACUGCAA | 2.37 |
| AGUUCGCGCCGGGAGCUCCAGCACAGUGAAAUGGACAGAAGGGCACCGCAA | 2.58 |
| AGUUCGCGCCGGGAGCUCCAGCACAGUGAAAUGGACAGAAGGUUAGAGCAA | 1.4 |
| AGUUCGCGCCGGGAGCUCCAGCACAGUGAAAUGGACAGAAGGUAAGAGCAA | 0.0721 |
| AGUUCGCGCCGGGAGCUCCAGCACAGUGAAAUGGACAGAAGGUGAGAGCAA | 0.713 |
| AGUUCGCGCCGGGAGCUCCAGCACAUUGAAAUGGACAGAAGGGCAGAGCAA | 3.19 |
| AGUUCGCGCCGGGAGCUCCAGCACAGUGAAAUUAACAGAAGGGCAGAGCAA | 0.696 |
| AGUUCGCGCCGGGAGCUCCAGCACAGUGAAAUUUACAGAAGGGCAGAGCAA | 0.875 |
| AGUUCGCGCCGGGAGCUCCAGCACAGUGAAAUUCACAGAAGGGCAGAGCAA | 1.15 |
| AGUUCGCGCCGGGAGCUCCAGCACAGUUGAAUGGACAGAAGGGCAGAGCAA | 3.24 |
| AGUUCGCGCCGGGAGCUCCAGCACAGUUCAAUGGACAGAAGGGCAGAGCAA | 2.89 |
| AGUUCGCGCCGGGAGCUCCAGCACAGUUUAAUGGACAGAAGGGCAGAGCAA | 1.08 |
| AGUUCGCGCCGGGAGCUCCAGCACAGUGAAAUGGACAGAAGGGCAGACCAA | 3.91 |
| AGUUCGCGCCGGGAGCUCCAGCACAGUGAAAUGGACAGAAGGGCAGAACAA | 4.29 |
| AGUUCGCGCCGGGAGCUCCAGCACAGUGAAAUGGACAGAACGGCAGAGCAA | 4.53 |
| AGUUCGCGCCGGGAGCUCCAGCACAGUGAAAUGGACAGAAAGGCAGAGCAA | 2.7 |
| AGUUCGCGCCGGGAGCUCCAGCACAGUGAAAUGGACAGAAUGGCAGAGCAA | 3.2 |
| AGUUCGCGCCGGGAGCUCCAGCACAGUGAAAUGGACAGAAGCUCAGAGCAA | 3.91 |
| AGUUCGCGCCGGGAGCUCCAGCACAGUGAAAUGGACAGAAGCACAGAGCAA | 4 |
| AGUUCGCGCCGGGAGCUCCAGCACAGUGAAAUGGACAGAAGCCCAGAGCAA | 3.63 |
